For 14 molecules, pKd results are on record in paper PMC9482650, “Quantitative fragmentomics allow affinity mapping of interactomes” (Nature Communications, 2022).

Holding throughout (experiment): holdup assay
Parameters in all cases: key: below the threshold = too weak to quantify, mostly under pKd 3.1 to 4

One assay deals with T1, DFNB31_3, Q9P202.
T1 sequence (Q9P202 811-907, limits assumed, looked up): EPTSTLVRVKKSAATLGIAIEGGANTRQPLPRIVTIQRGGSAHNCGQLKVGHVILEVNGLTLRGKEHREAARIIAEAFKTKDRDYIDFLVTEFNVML

A further assay has as its target T2, APBA3_2, O96018.
T2 sequence (O96018 480-570, limits assumed, looked up): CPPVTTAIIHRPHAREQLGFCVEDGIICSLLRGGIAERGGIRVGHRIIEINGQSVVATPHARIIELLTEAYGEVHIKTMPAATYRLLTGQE
As to conditions: plain residues with an end cap or a label only (N-terminal biotin on a linker: (peg)3).

In the next assay the target is T3, GIPC1, O14908.
T3 sequence (O14908 128-223, limits assumed, looked up): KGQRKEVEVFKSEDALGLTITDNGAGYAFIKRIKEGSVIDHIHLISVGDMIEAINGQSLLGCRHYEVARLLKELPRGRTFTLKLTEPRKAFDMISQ
As to conditions: plain residues with an end cap or a label only (N-terminal biotin on a linker: (peg)3).

Another assay deals with GIPC3, Q8TF64. As to conditions: plain residues with an end cap or a label only (N-terminal biotin on a linker: (peg)3).
Another assay has as its target T4, GRIP1_1, Q9Y3R0.
T4 sequence (Q9Y3R0 48-146, limits assumed, looked up): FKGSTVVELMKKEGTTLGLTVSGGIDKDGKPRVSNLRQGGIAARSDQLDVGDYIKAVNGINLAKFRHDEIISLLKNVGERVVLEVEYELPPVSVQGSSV
Particulars: plain residues with an end cap or a label only (N-terminal biotin on a linker: (peg)3).

Another assay addresses GRIP2_2, Q9C0E4. Particulars: plain residues with an end cap or a label only (N-terminal biotin on a linker: (peg)3).
The target of the next assay is T5, LNX2_1, Q8N448.
T5 sequence (Q8N448 228-328, limits assumed, looked up): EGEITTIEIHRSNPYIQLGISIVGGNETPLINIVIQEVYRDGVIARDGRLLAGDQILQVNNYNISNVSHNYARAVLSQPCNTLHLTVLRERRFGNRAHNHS
Particulars: plain residues with an end cap or a label only (N-terminal biotin on a linker: (peg)3).

A further assay has as its target T6, LNX2_4, Q8N448.
T6 sequence (Q8N448 595-690, limits assumed, looked up): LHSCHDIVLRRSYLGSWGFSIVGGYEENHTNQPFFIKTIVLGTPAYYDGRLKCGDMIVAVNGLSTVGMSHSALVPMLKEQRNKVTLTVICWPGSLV
Particulars: plain residues with an end cap or a label only (N-terminal biotin on a linker: (peg)3).

A further assay addresses MAGI1_3, Q96QZ7. Particulars: plain residues with an end cap or a label only (N-terminal biotin on a linker: (peg)3).
For another assay, the target named is MAGI1_4, Q96QZ7. Particulars: plain residues with an end cap or a label only (N-terminal biotin on a linker: (peg)3).
The target in a further assay is T7, MPDZ_11, O75970.
T7 sequence (O75970 1720-1817, limits assumed, looked up): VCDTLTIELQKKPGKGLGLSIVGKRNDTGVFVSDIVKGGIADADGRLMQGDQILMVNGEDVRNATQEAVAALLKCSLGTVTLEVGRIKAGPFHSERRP
Particulars: plain residues with an end cap or a label only (N-terminal biotin on a linker: (peg)3).

In another assay the target is T8, MPP1, Q00013.
T8 sequence (Q00013 66-162, limits assumed, looked up): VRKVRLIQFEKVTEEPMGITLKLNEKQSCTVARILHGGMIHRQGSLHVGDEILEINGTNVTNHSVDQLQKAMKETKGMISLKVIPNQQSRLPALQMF
Particulars: plain residues with an end cap or a label only (N-terminal biotin on a linker: (peg)3).

The target of the next assay is T9, NHERF1_2, O14745.
T9 sequence (O14745 149-244, limits assumed, looked up): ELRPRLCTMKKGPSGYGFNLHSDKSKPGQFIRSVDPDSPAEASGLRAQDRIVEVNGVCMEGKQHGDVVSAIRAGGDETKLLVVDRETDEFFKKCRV
Particulars: plain residues with an end cap or a label only (N-terminal biotin on a linker: (peg)3).

The next assay concerns the target T10, PDLIM3, Q53GG5.
T10 sequence (Q53GG5 1-94, limits assumed, looked up): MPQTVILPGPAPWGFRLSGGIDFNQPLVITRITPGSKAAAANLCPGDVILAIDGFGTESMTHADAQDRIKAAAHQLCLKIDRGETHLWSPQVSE
As to conditions: plain residues with an end cap or a label only (N-terminal biotin on a linker: (peg)3).

The next assay addresses PDLIM4, P50479. As to conditions: plain residues with an end cap or a label only (N-terminal biotin on a linker: (peg)3).
The target of the next assay is T11, PDZD2_1, O15018.
T11 sequence (O15018 80-192, limits assumed, looked up): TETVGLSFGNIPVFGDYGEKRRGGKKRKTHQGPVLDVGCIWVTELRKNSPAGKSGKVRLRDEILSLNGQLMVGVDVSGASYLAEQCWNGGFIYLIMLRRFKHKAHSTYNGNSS
As to conditions: plain residues with an end cap or a label only (N-terminal biotin on a linker: (peg)3).

The target in a further assay is T12, PDZD7_1, Q9H5P4.
T12 sequence (Q9H5P4 81-178, limits assumed, looked up): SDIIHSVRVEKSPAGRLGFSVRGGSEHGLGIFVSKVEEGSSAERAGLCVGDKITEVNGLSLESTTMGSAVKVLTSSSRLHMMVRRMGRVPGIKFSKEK
Particulars: plain residues with an end cap or a label only (N-terminal biotin on a linker: (peg)3).

A further assay deals with PTPN13_2, Q12923. Particulars: plain residues with an end cap or a label only (N-terminal biotin on a linker: (peg)3).
In a further assay the target is T13, PTPN4, P29074.
T13 sequence (P29074 512-599, limits assumed, looked up): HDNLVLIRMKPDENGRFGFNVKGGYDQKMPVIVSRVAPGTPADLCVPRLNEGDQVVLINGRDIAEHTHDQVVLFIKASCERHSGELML
Particulars: plain residues with an end cap or a label only (N-terminal biotin on a linker: (peg)3).

In the next assay the target is RGS3, P49796-9. Particulars: plain residues with an end cap or a label only (N-terminal biotin on a linker: (peg)3).
In another assay the target is T14, SHANK2, Q9UPX8.
T14 sequence (Q9UPX8 621-730, limits assumed, looked up): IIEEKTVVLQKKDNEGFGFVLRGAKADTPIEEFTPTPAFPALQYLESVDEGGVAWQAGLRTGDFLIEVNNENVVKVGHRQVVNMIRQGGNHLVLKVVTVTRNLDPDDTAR
Particulars: plain residues with an end cap or a label only (N-terminal biotin on a linker: (peg)3).

For the next assay, the target named is TJP1_1, Q07157. As to conditions: plain residues with an end cap or a label only (N-terminal biotin on a linker: (peg)3).
[1] abbreviates: plain residues with an end cap or a label only (N-terminal biotin on a linker: ado-ado).

Chain of TJP1_1, Q07157 (Q07157 18-120): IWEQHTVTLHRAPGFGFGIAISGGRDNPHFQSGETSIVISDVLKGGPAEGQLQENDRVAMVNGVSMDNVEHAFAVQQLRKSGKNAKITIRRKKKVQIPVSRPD
Chain of RGS3, P49796-9 (P49796 other isoform, or with tags, fused parts or gaps): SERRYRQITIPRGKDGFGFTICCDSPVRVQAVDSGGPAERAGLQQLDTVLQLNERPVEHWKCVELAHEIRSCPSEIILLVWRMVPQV
Chain of GRIP2_2, Q9C0E4 (Q9C0E4 137-245): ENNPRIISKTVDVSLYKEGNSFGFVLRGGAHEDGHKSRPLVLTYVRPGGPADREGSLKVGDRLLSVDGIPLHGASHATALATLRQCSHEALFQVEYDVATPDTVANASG
Chain of GIPC3, Q8TF64 (Q8TF64 107-202): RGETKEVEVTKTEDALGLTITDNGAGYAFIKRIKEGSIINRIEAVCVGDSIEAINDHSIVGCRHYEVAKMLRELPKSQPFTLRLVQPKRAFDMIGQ
Chain of PTPN13_2, Q12923 (Q12923 1363-1462): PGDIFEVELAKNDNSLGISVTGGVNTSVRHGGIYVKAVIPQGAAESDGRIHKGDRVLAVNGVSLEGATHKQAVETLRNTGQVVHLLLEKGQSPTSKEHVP
Chain of MAGI1_4, Q96QZ7 (Q96QZ7 other isoform, or with tags, fused parts or gaps): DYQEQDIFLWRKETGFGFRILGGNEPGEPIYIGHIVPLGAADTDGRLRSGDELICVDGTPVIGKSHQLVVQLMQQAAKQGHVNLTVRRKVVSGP
Chain of PDLIM4, P50479 (P50479 1-83): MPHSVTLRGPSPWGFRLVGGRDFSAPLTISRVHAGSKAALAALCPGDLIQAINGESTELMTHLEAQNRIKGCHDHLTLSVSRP
Chain of MAGI1_3, Q96QZ7 (Q96QZ7 638-725): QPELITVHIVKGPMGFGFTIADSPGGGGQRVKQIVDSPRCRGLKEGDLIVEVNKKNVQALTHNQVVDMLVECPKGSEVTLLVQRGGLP

Usually pKd stands for −log10 of the Kd, conventionally taken in molar units. With IKAIVDLTGL [TRAF2, Q12933], the pKd entry with DFNB31_3, Q9P202 (setting [1]) is listed as “below the threshold”.
PPYRHRNTVV [ERBB4, Q15303]: the pKd result with DFNB31_3, Q9P202 (setting [1]) is “below the threshold”.
Turning to RRLPGKETMA [GRIK2, Q13002], in the assay with DFNB31_3, Q9P202 (setting [1]), the pKd entry is “below the threshold”.
The same measure, in the same setting: the value for RRRESYSTTV [EVI5, O60447] was “below the threshold”; that for GSGAVEMESV [AQP6, Q13520] was “below the threshold”.
With SKPTRRETEV [HPV35-E6_-2P, P27228], in the assay with DFNB31_3, Q9P202 (modified: phospho on T at position -2 from the C-terminal residue), the negative logarithm of the Kd (pKd) was determined as 3.95.
As to YNNCLEILRV [DCAF7, P61962], in the assay with DFNB31_3, Q9P202 (setting [1]), the pKd result is given as “below the threshold”.
On to NLNSSEGVPDLLV [SARS-CoV-E, P59637], for which the pKd result in the assay with APBA3_2, O96018 is “below the threshold”; with DFNB31_3, Q9P202 (plain residues with an end cap or a label only (N-terminal biotin on a linker: (peg)3)), “below the threshold”; in the assay with GIPC1, O14908, “below the threshold”; in the assay with GIPC3, Q8TF64, “below the threshold”; with GRIP1_1, Q9Y3R0 it was “below the threshold”; in the assay with GRIP2_2, Q9C0E4, “below the threshold”. The pKd result was “below the threshold” with LNX2_1, Q8N448; 3.74 with LNX2_4, Q8N448; “below the threshold” with MAGI1_3, Q96QZ7; “below the threshold” with MAGI1_4, Q96QZ7; “below the threshold” in the assay with MPDZ_11, O75970; “below the threshold” in the assay with MPP1, Q00013. Besides, the pKd is 3.74 in the assay with NHERF1_2, O14745; “below the threshold” in the assay with PDLIM3, Q53GG5; “below the threshold” in the assay with PDLIM4, P50479; “below the threshold” with PDZD2_1, O15018; “below the threshold” in the assay with PDZD7_1, Q9H5P4; “below the threshold” with PTPN13_2, Q12923. Besides, the pKd entry in the assay with PTPN4, P29074 is recorded as “below the threshold”; with RGS3, P49796-9 it was “below the threshold”; with SHANK2, Q9UPX8 it was “below the threshold”; with TJP1_1, Q07157, “below the threshold”.
Turning to LRSPRTPSEV [OR10G3, Q8NGC4], the pKd with DFNB31_3, Q9P202 (setting [1]) was 3.79.
Same read-out and setting: the value for CLREWCDAFL [BANF1, O75531] was “below the threshold”.
The same measure, in the same setting: the value for LPAHHNATRL [SLC34A1, Q06495;Q06495-1] was “below the threshold”; that for SARSRLSSNL [HCN2, Q9UL51] was “below the threshold”.
Turning to RRISSLESEV [GRIN2C, Q14957], the pKd result with DFNB31_3, Q9P202 (setting [1]) is “below the threshold”.
Take LGRSTPQSEV [DGKH, Q86XP1]: in the assay with DFNB31_3, Q9P202 (setting [1]), the pKd result was “below the threshold”.
